The experiment deals with a seven trans-membrane receptor. Nature of the experiment: cell-based or functional assay.

Where no end group is shown, it is not given here.

B1: 2.022 kDa peptide, amino acids 110-128 of α-chain hemoglobin (SEQ ID No: 9) (peptide)
peptide: AAHLPAEFTPAVHASLDKF-NH2
With B1, the half-saturation effect of the peptide on the decrease in cell area of A7R5 cells with 5 nM bradykinin was determined as 9.35 µM and the increase of rat uterine contraction in the presence of oxytocin (isometric tissue bath, 100 µM peptide) turned out to be 30%.

Source of the values: patent US20100080803A1.
